The values that follow come from US20070003522A1 (published 2007).

The assay has as its target T1, mouse transferrin receptor 1 (TfR1) on TRH3 cells (293T cells stably expressing mouse TfR1) (mouse, UniProt Q62351 1-763).
T1 construct: whole, on cells; also called mTfR1; CD71
Description: FACS on TRH3 cells, anti-TfR1 antibody staining after incubation with pseudovirus.

T1 sequence (Q62351 whole entry): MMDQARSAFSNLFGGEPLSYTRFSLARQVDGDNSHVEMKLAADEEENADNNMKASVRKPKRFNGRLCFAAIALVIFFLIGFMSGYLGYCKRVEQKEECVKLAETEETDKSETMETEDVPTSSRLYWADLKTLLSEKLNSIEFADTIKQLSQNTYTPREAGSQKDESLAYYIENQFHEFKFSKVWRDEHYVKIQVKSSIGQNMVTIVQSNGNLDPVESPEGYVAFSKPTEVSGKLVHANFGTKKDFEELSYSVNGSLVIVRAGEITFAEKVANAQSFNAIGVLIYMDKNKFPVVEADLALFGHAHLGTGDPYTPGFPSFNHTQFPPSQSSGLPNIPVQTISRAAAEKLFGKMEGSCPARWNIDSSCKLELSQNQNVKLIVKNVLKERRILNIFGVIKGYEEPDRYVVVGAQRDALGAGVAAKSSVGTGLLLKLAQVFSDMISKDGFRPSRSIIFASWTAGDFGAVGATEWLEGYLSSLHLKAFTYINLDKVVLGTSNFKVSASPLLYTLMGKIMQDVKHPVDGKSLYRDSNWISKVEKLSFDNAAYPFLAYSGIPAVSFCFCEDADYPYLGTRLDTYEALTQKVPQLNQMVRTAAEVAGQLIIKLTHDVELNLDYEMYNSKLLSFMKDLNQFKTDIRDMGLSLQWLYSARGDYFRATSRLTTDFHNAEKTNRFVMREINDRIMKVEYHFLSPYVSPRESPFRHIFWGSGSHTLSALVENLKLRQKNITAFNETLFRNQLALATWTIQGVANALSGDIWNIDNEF

B1: wild-type MMTV (C3H strain) env protein on pseudotyped MoMLV virus (other)
chain: ESYWAYLPKPPILHPVGWGNTDPIRVLTNQTIYLGGSPDFHGFRNMSGNVHFEGKSDTLPICFSFSFSTPTGCFQVDKQVFLSDTPTVDNNKPGGKGDKRRMWELWLTTLGNSGANTKLVPIKKKLPPKYPHCQIAFKKDAFWEGDESAPPRWLPCAFPDQGVSFSPKGALGLLWDFSLPSPSVDQSDQIKSKKDLFGNYTPPVNKEVHRWYEAGWVEPTWFWENSPKDPNDRDFTALVPHTELFRLVAASRYLILKRPGFQEHDMIPTSACVTYPHAILLGLPQLIDIEKRGSTFHISCSSCRLTNCLDSSAYDYAAIIVKRPPYVLLPVDIGDEPWFDDSAIQTFRYATDLIRAKRFVAAIILGISALIAIITSFAVATTALVKEMQTATFVNNLHRNVTLALSEQRIIDLKLEARLNALEEVVLELGQDVANLKTRMSTRCHANYDFICVTPLPYNASESWERTKAHLLGIWNDNEISYNIQELTNLISDMSKQHIDTVDLSGLAQSFANGVKALNPLDWTQYFIFIGVGALLLVIVLMIFPIVFQCLAKSLDQVQSDLNVLLLKKKKGGNAAPAAEMVELPRVSYT
notes: On virions it is processed into SU (gp52) and TM (gp36); also called wild type pseudovirus; wt
In the case of B1, the binding result is reported as “binds”.
